Test results taken from article PMC3087504, “DNA Damage in Oocytes Induces a Switch of the Quality Control Factor TAp63α from Dimer to Tetramer” (Cell, 2011).

B1: MBP-TAp63γ (natural protein, mouse, UniProt O88898-5 40-483, looked up)
chain: MSQSTQTSEFLSPEVFQHIWDFLEQPICSVQPIELNFVDEPSENGATNKIEISMDCIRMQDSDLSDPMWPQYTNLGLLNSMDQQIQNGSSSTSPYNTDHAQNSVTAPSPYAQPSSTFDALSPSPAIPSNTDYPGPHSFDVSFQQSSTAKSATWTYSTELKKLYCQIAKTCPIQIKVMTPPPQGAVIRAMPVYKKAEHVTEVVKRCPNHELSREFNEGQIAPPSHLIRVEGNSHAQYVEDPITGRQSVLVPYEPPQVGTEFTTVLYNFMCNSSCVGGMNRRPILIIVTLETRDGQVLGRRCFEARICACPGRDRKADEDSIRKQQVSDSAKNGDAFRQNTHGIQMTSIKKRRSPDDELLYLPVRGRETYEMLLKIKESLELMQYLPQHTIETYRQQQQQQHQHLLQKHLLSACFRNELVEPRGEAPTQSDVFFRHSNPPNHSVYP
notes: 193 amino acids less per monomer than TAp63α; cloned into pMAL-c4X; almost equal distribution between dimers and tetramers at 30 nM; source: E. coli (T7 express), purified (Ni-Sepharose, Amylose resin, SEC); not shown: MBP, N-terminal, kept
B2: TAp63α in oocytes of non-irradiated mice (natural protein, UniProt O88898-1 40-680, looked up)
chain: MSQSTQTSEFLSPEVFQHIWDFLEQPICSVQPIELNFVDEPSENGATNKIEISMDCIRMQDSDLSDPMWPQYTNLGLLNSMDQQIQNGSSSTSPYNTDHAQNSVTAPSPYAQPSSTFDALSPSPAIPSNTDYPGPHSFDVSFQQSSTAKSATWTYSTELKKLYCQIAKTCPIQIKVMTPPPQGAVIRAMPVYKKAEHVTEVVKRCPNHELSREFNEGQIAPPSHLIRVEGNSHAQYVEDPITGRQSVLVPYEPPQVGTEFTTVLYNFMCNSSCVGGMNRRPILIIVTLETRDGQVLGRRCFEARICACPGRDRKADEDSIRKQQVSDSAKNGDGTKRPFRQNTHGIQMTSIKKRRSPDDELLYLPVRGRETYEMLLKIKESLELMQYLPQHTIETYRQQQQQQHQHLLQKQTSMQSQSSYGNSSPPLNKMNSMNKLPSVSQLINPQQRNALTPTTMPEGMGANIPMMGTHMPMAGDMNGLSPTQALPPPLSMPSTSHCTPPPPYPTDCSIVSFLARLGCSSCLDYFTTQGLTTIYQIEHYSMDDLASLKIPEQFRHAIWKGILDHRQLHDFSSPPHLLRTPSGASTVSVGSSETRGERVIDAVRFTLRQTISFPPRDEWNDFNFDMDSRRNKQQRIKEEGE
notes: endogenous murine TAp63α of oocytes; also called TAp63α (NIRR); source: endogenous, ovary lysate of non-irradiated P5 CD-1 mice
B3: phosphorylated TAp63α in oocytes of γ-irradiated mice (natural protein, UniProt O88898-1 40-680, looked up)
chain: MSQSTQTSEFLSPEVFQHIWDFLEQPICSVQPIELNFVDEPSENGATNKIEISMDCIRMQDSDLSDPMWPQYTNLGLLNSMDQQIQNGSSSTSPYNTDHAQNSVTAPSPYAQPSSTFDALSPSPAIPSNTDYPGPHSFDVSFQQSSTAKSATWTYSTELKKLYCQIAKTCPIQIKVMTPPPQGAVIRAMPVYKKAEHVTEVVKRCPNHELSREFNEGQIAPPSHLIRVEGNSHAQYVEDPITGRQSVLVPYEPPQVGTEFTTVLYNFMCNSSCVGGMNRRPILIIVTLETRDGQVLGRRCFEARICACPGRDRKADEDSIRKQQVSDSAKNGDGTKRPFRQNTHGIQMTSIKKRRSPDDELLYLPVRGRETYEMLLKIKESLELMQYLPQHTIETYRQQQQQQHQHLLQKQTSMQSQSSYGNSSPPLNKMNSMNKLPSVSQLINPQQRNALTPTTMPEGMGANIPMMGTHMPMAGDMNGLSPTQALPPPLSMPSTSHCTPPPPYPTDCSIVSFLARLGCSSCLDYFTTQGLTTIYQIEHYSMDDLASLKIPEQFRHAIWKGILDHRQLHDFSSPPHLLRTPSGASTVSVGSSETRGERVIDAVRFTLRQTISFPPRDEWNDFNFDMDSRRNKQQRIKEEGE
modifications: phosphorylated after γ-irradiation; sites not stated
notes: endogenous murine TAp63α of oocytes, phosphorylated after DNA damage; both dimer and tetramer fractions hold protein after irradiation; also called TAp63α (IRR); source: endogenous, ovary lysate of P5 CD-1 mice 6 hr after 0.52 Gy γ-irradiation
B4: λ-phosphatase-treated TAp63α obtained from irradiated oocytes (natural protein, UniProt O88898-1 40-680, looked up)
chain: MSQSTQTSEFLSPEVFQHIWDFLEQPICSVQPIELNFVDEPSENGATNKIEISMDCIRMQDSDLSDPMWPQYTNLGLLNSMDQQIQNGSSSTSPYNTDHAQNSVTAPSPYAQPSSTFDALSPSPAIPSNTDYPGPHSFDVSFQQSSTAKSATWTYSTELKKLYCQIAKTCPIQIKVMTPPPQGAVIRAMPVYKKAEHVTEVVKRCPNHELSREFNEGQIAPPSHLIRVEGNSHAQYVEDPITGRQSVLVPYEPPQVGTEFTTVLYNFMCNSSCVGGMNRRPILIIVTLETRDGQVLGRRCFEARICACPGRDRKADEDSIRKQQVSDSAKNGDGTKRPFRQNTHGIQMTSIKKRRSPDDELLYLPVRGRETYEMLLKIKESLELMQYLPQHTIETYRQQQQQQHQHLLQKQTSMQSQSSYGNSSPPLNKMNSMNKLPSVSQLINPQQRNALTPTTMPEGMGANIPMMGTHMPMAGDMNGLSPTQALPPPLSMPSTSHCTPPPPYPTDCSIVSFLARLGCSSCLDYFTTQGLTTIYQIEHYSMDDLASLKIPEQFRHAIWKGILDHRQLHDFSSPPHLLRTPSGASTVSVGSSETRGERVIDAVRFTLRQTISFPPRDEWNDFNFDMDSRRNKQQRIKEEGE
notes: endogenous murine TAp63α of irradiated oocytes after dephosphorylation in the lysate; kept apart because it was first phosphorylated in vivo and then dephosphorylated; also called dephosphorylated TAp63α (IRR + λPP); source: endogenous, ovary lysate of irradiated P5 mice, treated with λ-Protein Phosphatase (30°C, 45 min)

Tests used:
[1] = target: the molecule itself; assay: AUC; sedimentation velocity, 45,000 rpm, 4 μM protein, 4°C, 20 mM potassium phosphate pH 7.5, 200 mM NaCl, 2 mM dithiothreitol
[2] = target: the molecule itself; assay: SEC; lysate of 16 ovaries of non-irradiated or γ-irradiated (0.52 Gy) P5 mice, Superose 6 PC 3.2/30, 4°C, 50 mM sodium phosphate, 100 mM NaCl, phosphatase inhibitors; fractions blotted with 4A4; dimer fraction 1.55 ml, tetramer fraction 1.3 ml
[3] = target: the molecule itself; assay: SEC; lysate of ovaries of irradiated mice incubated with λ-Protein Phosphatase (30°C, 45 min, 1.25 mM MnCl2), then Superose 6 PC 3.2/30 and western blot

Protein | stoichiometry N [2] | further results
B1 | – | stoichiometry N [1]: 4
B2 | 2 | –
B3 | 4 | –
B4 | – | stoichiometry N [3]: 4
